Test results taken from US20190002549A1 (I MAB BIOPHARMA, published 2019).
Substitutions are numbered along the chain they refer to.

B1: Hu23F4-27 (antibody, V domains shown)
VH: EVQLVQSGAEVKKPGASVKVSCKASGYTFTSHYLHWVRQAPGQGLEWMGWIFPGDDKTKYNEKFKGRVTMTSDTSISTAYMELSRLRSDDTAVYYCARGTKYLNWNFDVWGQGTTVTVSS
VL: DIQLTQSPSFLSASVGDRVTITCKANQNVGTTLAWYQQKPGKSPKALIYSASYRYSGVPDRFSGSGSGTDFTLTISSLQPEDFATYFCHQYTTYPLTFGGGTKVEIK
notes: Humanized
B2: Hu23F4-36 (antibody, V domains shown)
VH: B1 VH with G26D, F29L, M48I, V68A, M70L
VL: B1 VL with S43A, A46L, D60S, D70E, F87Y
notes: Humanized
B3: Hu23F4-13 (antibody, V domains shown)
VH: EVQLVQSGAEVKKPGATVKISCKVSGYTFTSHYLHWVQQAPGKGLEWIGWIFPGDDKTKYNEKFKGRATLTSDTSTDTAYMELSSLRSEDTAVYYCARGTKYLNWNFDVWGQGTTVTVSS
VL: B1 VL with S43A, A46L, D60S, D70E, F87Y
notes: Humanized
B4: Hu50C5-23 (antibody, V domains shown)
VH: EVQLVQSGAEVKKPGSSVKVSCKASGYIFTPYSIHWVRQAPGQGLEWIGYINPSTGYIEYNQHFKDRTTLTADKSTSTAYMELRSLRSEDTAVYYCARGGDYEGYFDYWGQGTTVTVSS
VL: DIQMTQSPSSLSASVGDRVTITCRLNENIYSFLAWYQQKPGKAPKLLVYNAETLAEDVPSRFSGSGSGTDFTLTISSLQPEDFATYYCQQHYGTPYTFGGGTKVEIK
notes: Humanized; also called 35230Hu50C5-23
B5: Hu50C5-17 (antibody, V domains shown)
VH: B4 VH with T30S
VL: B4 VL with D57G
notes: Humanized; also called 35230Hu50C5-17
B6: 23F4 chimera (antibody, V domains shown)
VH: QVQLQQSGPELVKPGTSMKISCKTSDYTLTSHYLHWVKQRPGQGLEWIGWIFPGDDKTKYNEKFKGKATLTSDKTSNTAYMQLSSLTSEESAVYFCARGTKYLNWNFDVWGTGTTVTVSS
VL: DIVLTQPQKFLSTSVGDRVSVTCKANQNVGTTLAWYQQKPGQSPKALIYSASYRYSGVPDRFTGSGSGTDFTLTISNVQSEDLAEYFCHQYTTYPLTFGGGTKLEIK
notes: Human constant regions (captured by anti-human Fc IgG); also called Hu23F4-chimera
B7: 50C5 chimera (antibody, V domains shown)
VH: QVQLQQSAAELVRPGASVKMSCKASGYIFTPYSIHWIKQRPGQGLEWIGYINPSTGYIEYNQHFKDRTTLTADKSSSTAYMQLRSLTSEDSAVYYCARGGDYEGYFDYWGQGTTLTVSS
VL: DIQMTQSPDSLSASVGETVTITCRLNENIYSFLAWYQQRQGKSPQLLVYNAETLAEDVPSRFSGSGSGTQFSLKISSLQTDDFGTYYCQQHYGTPYTFGGGTNLEIE
notes: Human constant regions (captured by anti-human Fc IgG); also called 35230Hu50C5-chimera; Hu50C5-chimera
B8: Hu23F4-29 (antibody, V domains shown)
VH: B1 VH with M70L
VL: B1 VL with S43A, D60S, D70E, F87Y
notes: Humanized
B9: Hu23F4-23 (antibody, V domains shown)
VH: B1 VH with S72R
VL: B1 VL
notes: Humanized
B10: Hu23F4-25 (antibody, V domains shown)
VH: B1 VH
VL: B1 VL with S43A, D60S, D70E, F87Y
notes: Humanized
B11: Hu23F4-20 (antibody, V domains shown)
VH: B1 VH with S72R
VL: B1 VL with S43A, A46L, D60S, D70E, F87Y
notes: Humanized
B12: Hu23F4-5 (antibody, V domains shown)
VH: B3 VH with I48M, A68V, L70I
VL: B1 VL with S43A, A46L, D60S, D70E, F87Y
notes: Humanized
B13: Hu23F4-6 (antibody, V domains shown)
VH: B3 VH with I48M, A68V, L70I
VL: B1 VL with S43A, D60S, D70E, F87Y
notes: Humanized
B14: Hu50C5-6 (antibody, V domains shown)
VH: B4 VH with T30S, I48M, T68V, L70I
VL: B4 VL with V48I, D57G
notes: Humanized; also called 35230Hu50C5-6
B15: Hu50C5-8 (antibody, V domains shown)
VH: B4 VH with T30S, I48M, T68V, L70I
VL: B4 VL
notes: Humanized; also called 35230Hu50C5-8
B16: Hu50C5-11 (antibody, V domains shown)
VH: B4 VH with T30S, T68V, L70I
VL: B4 VL with V48I, D57G
notes: Humanized; also called 35230Hu50C5-11
B17: Hu50C5-21 (antibody, V domains shown)
VH: B4 VH
VL: B4 VL with V48I, D57G
notes: Humanized; also called 35230Hu50C5-21
B18: Hu50C5-19 (antibody, V domains shown)
VH: B4 VH with T30S
VL: B4 VL with D70Q
notes: Humanized; also called 35230Hu50C5-19
B19: Hu50C5-18 (antibody, V domains shown)
VH: B4 VH with T30S
VL: B4 VL
notes: Humanized

Target: T1, recombinant rhesus GM-CSF protein (rhesus, UniProt Q9GL44 18-144)
T1 construct: Bought recombinant protein (Genscript)
Assay: ELISA, rhesus GM-CSF coated at 1 ug/ml
Description: Recombinant rhesus GM-CSF protein (Genscript) was coated at 1 ug/ml in PBS onto microtiter plates for 2 h at room temperature (RT). After coating of antigen, the wells were blocked with PBS/0.05% Tween (PBST) with 1% BSA for 1 h at RT. After washing of the wells with PBST, different concentrations of humanized anti-GM-CSF antibodies were added to the well and incubated for 1 at RT. For detection of the binding antibodies, the HRP-conjugated secondary antibodies against mouse Fc (Jackson Immuno Research) were added, followed by the addition of fluorogenic substrates (Roche). Between all incubation steps, the wells of the plate were washed with PBST three times. Fluorescence was measured in a TECAN Spectrafluor plate reader.

T1 sequence (Q9GL44 entry or part of it limits assumed): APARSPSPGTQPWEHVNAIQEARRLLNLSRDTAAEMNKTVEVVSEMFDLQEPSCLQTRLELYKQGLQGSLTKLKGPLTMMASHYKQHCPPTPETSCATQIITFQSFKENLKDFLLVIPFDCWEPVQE

EC50 [µg/mL] | Binder
0.00625 | B1
0.00775 | B2
0.00744 | B3
0.0216 | B4
0.0189 | B5

Target: T2, recombinant human GM-CSF protein (human, UniProt P04141 18-144)
Assay: cell-based or functional assay

T2 sequence (P04141 18-144 limits assumed): as the sequence (Q9GL44 entry or part of it limits assumed) above, with G9S, K38E, V43I, S53T, Q67R, Q104E counted along it

IC50 for TF-1 proliferation [µg/mL] | Binder
0.00855 | B6
0.0865 | B7
0.0274 | B8
0.00395 | B1
0.0033 | B2
0.00908 | B9
0.0122 | B10
0.00877 | B11
0.0156 | B12
0.00787 | B13
0.00495 | B3
0.0239 | B14
0.0143 | B4
0.0459 | B15
0.111 | B16
0.0216 | B17
0.0221 | B5
0.017 | B18
0.0413 | B19

Target: T2, recombinant human GM-CSF protein
Assay: SPR Biacore T200, antibody captured by anti-human Fc, GM-CSF as analyte, 25 C, 1:1 model
Description: The binding kinetics of humanized antibodies were measured by Biacore as previously described. […] The binding kinetics assay of antibody to antigen was performed using Biacore T200 system through a human antibody capture approach. The anti-human Fc IgG were immobilized on CMS sensor chip according to the manufacturer's instruction. The test antibody was injected and captured by the immobilized anti-human Fc IgG. And then serial concentrations of the antigen were individually injected, and the binding profile was recorded for each concentration of antigen analyte, respectively.
The assay system was regenerated by injection of 10 mM Glycine-HCL pH 1.5 for 30 seconds. The running buffer was HBS-EP+ (10 mM HEPES, pH 7.4, 150 mM NaCl, 3 mM EDTA and 0.05% P20). The assay temperature was 25° C., and the association and dissociation time were 180 and 600 seconds, respectively.

Kd [nM] | koff [s⁻¹] | kon [M⁻¹ s⁻¹] | Binder
0.0315 | 3.87e-05 | 1.23e+06 | B6
0.032 | 0.000142 | 4.43e+06 | B7
0.152 | 0.000101 | 667000 | B8
0.102 | 9.46e-05 | 923000 | B1
0.0807 | 0.000103 | 1.27e+06 | B2
0.13 | 0.000116 | 899000 | B9
0.172 | 0.000109 | 635000 | B10
0.142 | 0.000114 | 801000 | B11
0.104 | 0.000124 | 1.19e+06 | B12
0.154 | 0.000135 | 876000 | B13
0.0935 | 0.00012 | 1.28e+06 | B3
0.0311 | 0.000138 | 4.42e+06 | B14
0.0276 | 0.000125 | 4.54e+06 | B4
0.0282 | 0.000139 | 4.91e+06 | B15
0.0312 | 0.000136 | 4.37e+06 | B16
0.0236 | 0.000108 | 4.59e+06 | B17
0.0249 | 0.000111 | 4.47e+06 | B5
0.023 | 0.000106 | 4.62e+06 | B18
0.0231 | 0.000109 | 4.72e+06 | B19
